Source: publication PMC5339670 (The Journal of Experimental Medicine, 2017)

Target: T1, Recombinant His-tagged WASp (mouse, UniProt P70315 1-520)
T1 sequence (looked up): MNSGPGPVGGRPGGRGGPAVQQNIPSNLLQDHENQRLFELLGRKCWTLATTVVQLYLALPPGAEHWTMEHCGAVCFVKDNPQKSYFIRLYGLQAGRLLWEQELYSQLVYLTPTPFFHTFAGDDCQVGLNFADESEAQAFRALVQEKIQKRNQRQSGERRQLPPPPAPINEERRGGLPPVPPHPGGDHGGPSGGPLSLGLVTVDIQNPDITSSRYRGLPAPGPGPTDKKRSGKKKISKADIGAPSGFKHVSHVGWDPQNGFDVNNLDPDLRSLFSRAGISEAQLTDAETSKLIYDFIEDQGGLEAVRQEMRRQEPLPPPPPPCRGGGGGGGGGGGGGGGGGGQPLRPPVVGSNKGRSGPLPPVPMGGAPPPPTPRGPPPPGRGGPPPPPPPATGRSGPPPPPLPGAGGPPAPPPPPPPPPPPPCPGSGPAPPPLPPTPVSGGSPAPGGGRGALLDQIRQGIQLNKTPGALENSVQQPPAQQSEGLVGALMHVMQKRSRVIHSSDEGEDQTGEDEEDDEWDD
Assay: pull-down

binding result: binds
B1: GST fusion protein of the Skap2 SH3 domain (domain or fragment, mouse, UniProt Q3UND0 296-357, looked up)
chain: DYANFYQGLWDCTGALSDELSFKRGDVIYILSKEYNRYGWWVGEMKGAIGLVPKAYLMEMYD
